Source: the supplement of paper PMC10899765

How the values were obtained:
Settings in all cases: 20 nM; 72 h
MCF10A [1] = test: 5+ nucleoli phenotype percent effect (relative to siNT 0% and siKIF11 100%); higher = more cells with five or more nucleoli
Experimental: (§1)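 After 72 h, cells were fixed and stained with Hoechst and anti-fibrillarin, and nucleoli per nucleus were counted with CellProfiler. Values are plate-adjusted percent effect for the one-nucleolus and 5+ nucleoli phenotypes, normalised to siNT (0%) and to the positive controls siNOL11 or siKIF11 (100%), as the mean of biological triplicates. Percent viability is the nuclei count relative to siNT.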

MCF10A [2] = test: percent viability (nuclei count relative to siNT); higher = more viable cells
Experimental: as §1

MCF10A [3] = test: one-nucleolus phenotype percent effect (relative to siNT 0% and siNOL11 100%); higher = more cells with one nucleolus (ribosome biogenesis inhibition)
Experimental: as §1

Row | Sequence | 5+ nucleoli phenotype percent effect (MCF10A [1]) | percent viability (MCF10A [2]) | one-nucleolus phenotype percent effect (MCF10A [3])
1 | GAAAAUCCUUUUUGUUUUUCCAG [hsa-miR-4668-3p] | 28.5% | 72.8% | -14.6%
2 | GAAAAUGAUGAGUAGUGACUGAUG [hsa-miR-3662] | 57.8% | 88.3% | -17.5%
3 | GAAAGAGAGCUGAGUGUG [hsa-miR-4311] | -27.3% | 26.3% | 31.2%
4 | GAAAGCGCUUCCCUUUGCUGGA [hsa-miR-518a-3p] | -15.5% | 59.1% | 17.4%
5 | GAAAGCGCUUCUCUUUAGAGG [hsa-miR-518f-3p] | -8.13% | 63.6% | 17.1%
6 | GAAAGUAAUUGCUGUUUUUGCC [hsa-miR-548aq-5p] | 16.5% | 118% | -13.4%
7 | GAAAGUACAGAUCGGAUGGGU [hsa-miR-8054] | 24.3% | 55.8% | -3.34%
8 | GAAAGUGCUUCCUUUUAGAGGC [hsa-miR-526b-3p] | 57.2% | 105% | -23.4%
9 | GAAAUCAAGCGUGGGUGAGACC [hsa-miR-551b-5p] | 40.3% | 57.5% | -15.5%
10 | GAACCCAUGAGGUUGAGGCUGCAGU [hsa-miR-1273d] | -8.88% | 39.1% | 3.74%
11 | GAACGCCUGUUCUUGCCAGGUGG [hsa-miR-614] | -0.465% | 72.8% | -10.6%
12 | GAACGCGCUUCCCUAUAGAGGGU [hsa-miR-523-3p] | 23.3% | 119% | -18.2%
13 | GAACGGCUUCAUACAGGAGUU [hsa-miR-337-5p] | -25.8% | 53.8% | 9.16%
14 | GAACUCACCCUCUGCUCCCAG [hsa-miR-6750-3p] | 29.7% | 99% | -8.73%
15 | GAAGAACUGUUGCAUUUGCCCU [hsa-miR-4511] | 26.2% | 121% | -30.8%
16 | GAAGAAUAGGAGGGACUUUGU [hsa-miR-6507-5p] | 35.1% | 79.1% | -12.9%
17 | GAAGACUUCUUGGAUUACAGGGG [hsa-miR-8087] | -8.56% | 112% | 2.61%
18 | GAAGAUGGACGUACUUU [hsa-miR-4426] | -32.9% | 28.5% | 31.4%
19 | GAAGAUGGUGCUGUGCUGAGGAA [hsa-miR-4647] | -5.89% | 60.7% | 22.7%
20 | GAAGCUCUCCCCUCCCCGCAG [hsa-miR-6796-3p] | 5.79% | 103% | -14.7%
21 | GAAGGACACUGGUGUCAACGGCU [hsa-miR-8080] | 19.9% | 118% | -9.1%
22 | GAAGGACCUGCACCUUCG [hsa-miR-6816-3p] | -36.7% | 35.3% | 49.8%
23 | GAAGGCAGCAGUGCUCCCCUGU [hsa-miR-3714] | -29.2% | 9.1% | 19.5%
24 | GAAGGCGCUUCCCUUUAGAGCG [hsa-miR-525-3p] | -16.5% | 42.5% | 37.2%
